According to patent US20160068605A1:
Read-outs that look alike come from different tables or passages of the source.

Key:
[1] = molecular target: IL3RA-PK (CD123 tagged with ProLink) in HEK293 IL3RA-PK/CSF2RB-EA cells (UniProt P26951)
[2] = molecular target: IL3RA-PK (CD123 tagged with ProLink) in HEK293 IL3RA-PK/CSF2RB-EA cells (UniProt P26951); remark: listed apart in the source
[3] = molecular target: human CD123 SP1 ECD displayed on pDisplay-transfected cells (human) (UniProt P26951); assay: MSD-CAT, hCD123 cells, assay-2
[4] = molecular target: cyno CD123 ECD displayed on pDisplay-transfected cells (cynomolgus monkey); assay: MSD-CAT, cynoCD123 cells, assay-2
[5] = molecular target: endogenous CD123 on human leukaemia cells (OCI-AML5, TF-1) (human) (UniProt P26951); assay: MSD cell binding assay on OCI-AML5 cells (endogenous CD123)
endogenous CD123 on human leukaemia cells (OCI-AML5, TF-1) (human), sequence (P26951 19-378): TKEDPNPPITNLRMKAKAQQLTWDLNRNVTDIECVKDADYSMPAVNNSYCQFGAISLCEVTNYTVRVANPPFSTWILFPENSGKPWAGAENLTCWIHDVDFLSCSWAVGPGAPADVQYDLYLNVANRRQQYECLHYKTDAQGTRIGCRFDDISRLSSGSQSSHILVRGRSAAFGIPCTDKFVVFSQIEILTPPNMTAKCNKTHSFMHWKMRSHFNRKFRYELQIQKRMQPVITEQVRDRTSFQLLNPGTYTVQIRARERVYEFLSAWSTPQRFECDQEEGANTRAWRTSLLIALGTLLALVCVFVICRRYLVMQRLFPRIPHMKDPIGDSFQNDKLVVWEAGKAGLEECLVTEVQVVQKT

cyno CD123 ECD displayed on pDisplay-transfected cells (cynomolgus monkey), sequence (chain, as listed by the source): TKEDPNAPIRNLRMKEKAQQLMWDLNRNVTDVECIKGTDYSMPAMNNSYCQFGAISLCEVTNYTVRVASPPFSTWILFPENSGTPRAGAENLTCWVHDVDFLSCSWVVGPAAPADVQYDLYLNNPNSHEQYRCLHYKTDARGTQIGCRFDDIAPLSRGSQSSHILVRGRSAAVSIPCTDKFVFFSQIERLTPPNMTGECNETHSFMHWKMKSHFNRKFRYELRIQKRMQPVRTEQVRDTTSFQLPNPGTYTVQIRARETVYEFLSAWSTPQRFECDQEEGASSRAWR
human CD123 SP1 ECD displayed on pDisplay-transfected cells (human), sequence (P26951 20-305): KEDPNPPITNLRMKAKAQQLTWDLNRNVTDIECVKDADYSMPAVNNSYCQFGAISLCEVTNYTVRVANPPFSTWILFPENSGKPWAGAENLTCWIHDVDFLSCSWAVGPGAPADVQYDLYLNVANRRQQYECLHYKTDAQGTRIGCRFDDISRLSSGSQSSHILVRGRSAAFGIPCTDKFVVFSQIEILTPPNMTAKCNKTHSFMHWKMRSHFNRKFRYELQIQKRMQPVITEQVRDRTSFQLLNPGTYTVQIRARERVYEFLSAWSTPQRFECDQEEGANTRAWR

B1: 7G3 (antibody, from another filing, V domains shown)
VH: EVQLQQSGPELVKPGASVKMSCKASGYTFTDYYMKWVKQSHGKSLEWIGDIIPSNGATFYNQKFKGKATLTVDRSSSTAYMHLNSLTSEDSAVYYCTRSHLLRASWFAYWGQGTLVTVSA
VL: DFVMTQSPSSLTVTAGEKVTMSCKSSQSLLNSGNQKNYLTWYLQKPGQPPKLLIYWASTRESGVPDRFTGSGSGTDFTLTISSVQAEDLAVYYCQNDYSYPYTFGGGTKLEIKR
B1 showed an IC50 (read off the curve): IL-3-induced CD123/CD131 heteromerization (RLU) [1] of 0.2 µg/mL, an IC50 (read off the curve): IL-3-induced CD123/CD131 heteromerization (RLU) [2] of 0.05 µg/mL and a Kd [3] of 0.154 nM. It also gave a Kd [4] of 0.057 nM and an EC50 (read off the curve) [5] of 7 µg/mL.
